Assay results from the NTF2 design screens of Basanta et al. (2020).

Experiment: protease stability score; higher = more stable; yeast display proteolysis, trypsin and chymotrypsin;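 note: relative to predicted unfolded state with 0 unfolded-like and 1 meaning tenfold more protease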

Row | Sequence | protease stability score
1 | DEEERHVQTLYEIFLKLEITGNEHAIKRLLDPHTRLHINGREHHGREEVVEAVRFWLTEWRIHHFKIHNREVQGDKMYMDTRLEVEFNGVNEEVHMIIIMQKIDGRWILRRIEIE | 2.25
2 | DEEERHVRELLQRLINALDTGDWKTIHELFDPHARMEINGQHYHGRETINDKLKEMRVSVHDWEQKHIDTFEGHAVVHTHVHIVYIVNGVKHINDTREMIVFTKINGRWVIESRHVK | 0.563
3 | DEEERHVRELLREWIESLFTGDEHRLMELADPHARSHIDGVDLHGRENMHRMIHELRITDMRIRRISVRLVGDFVDVRVDGESDIYFNGQRLHTQIDIVIISSKIDGKWVIEEVHHNIE | 0.763
4 | DEEERIAEEMISDWIHVMRTGNEELLKDMADPHVKVYIDGRDFHGMEFLVREYRQYDHNDSELRHFTVQGNYVFSEQMLKLTVNGQTITWEVHYKSLKVDGRWIVTLILLK | 1.32
5 | DEEERIAKVMLKIVEKDLHTGNFETLFHLMDPHMRLEYGDKHHHGREEAYRELLEIWEELGANHYHITHRHVRLIGDKIRIHIYSIVRFNGREHHLHIDLIVTKIDGRWVMHRIIIELK | 0.723
6 | DEEERISEELFNFITKHWLTGDFDAVRNRLDPNVRYLINGREWHGREYARHLASHLRVERVKIENFEIQGNKITFDTRMDGEFDGQHIDVKTIIIFVKIDGKWLLHEFVIH | 1.34
7 | DEEERKMEEALRLMKTTHDTGDWDLERELFDPNVKMDINGRELHGRRHWEKLRKDFGLDNIRFTLRHIDSQGDFILIRGDVEINGVRLDVIIIAEKINGRWIVREVRLR | 0.718
8 | DEEERLDEEIMERIHKAYATGDFDEIKRLIDPHVRSDINGVDTHGRDDAIHYLHHVYRRLGFKHFELKHVESYDGRVHTDGWLRFNGQERRVEFRWQVIDGRIHSVSLRMK | 0.975
9 | DEEERLEREIVDHLWTNWYTGDEERMEELADPNVRLEINIGDKHIRLHGRHELLRHLHEWKERFKNIKIRLHDYRVIDGRVHLHVVYRFDGRHKTMHIELYIVNGRIKEIIHRES | 1.66
10 | DEEERLLDHVIKLMLQMHLTGNEEIFLNLADPHAKFYFNGVDLHGMELVSKWESEWLHHIRIRRRHIEDSRIVGDKAHIHVRVDEEIGDKKLDTHYRVDLVVINGRWHSVRIDMR | 1.25
11 | DEEERLLEELARLFLHLWRTGDEDTMLHLADPNTRSRINGVEQHGMELTNKFLEELLRHIRIKHLKITHSYAFDGRVFMHTLMHRTVDGKEETVWVEIILVVFNGKLKEYEVRFK | 1.3
12 | DEEERLLEKSIKEEIERNVTGDFRRIHELFDPNMRLDINGQEYMGRDLMVERWQKFKNVRSHIELRHYEIINGKAHVDGHLILYIDGVELRTRTRIIYVKINGRWSIQEIDIT | 1.38
13 | DEEERLLHEAFEELVRVWETGDEEEKLRYMDPNTIIVINGVELHGREEARKHAHHLRIHRFHLKDYRFQGDKVHLDMHIDGFINGQKMRTDVRFQVHKIDGRWVITHSIWI | 1.71
14 | DEEERLLLEWVRLFLTAWETGDEKLQEKLMDPHARTDFNGVQLHGREEYSRFLSQLRIRRFHVRDESIRIVGNKAESEVDGEVEGEVNGQRFKQHTEIEIHSEKINGRWLWKSLTIRIK | 1.5
15 | DEEERLMKELSDRFLHMKETGDEELFHKLADPNVRVEIGDKSRHGRELATEFLSWVMKELGVKHVKLHDKRTYDGRVHLNGTLEFNGREFRVRITVIIVNGRVHDIRVELE | 0.771
16 | DEEERLQEELTKRLIHDFETGDFEAILELFDPHVRVFVNGKDDHGWEMLERSWREMGIDHMQIRDFELHHINGRLEVRIRTEIRVGDKTMDTIIILNVQKYDGRWRIHKVEITIR | 1.24
17 | DEEERLRHEALKEWLETLVTGDERIIMEQLDPDARIDINGQEIHGMELFAKFMSEMGINVFDLKRTTIQGDKLRIEGVIKFNGKTHRVHVRSTKVDGRWRNKEVRVE | 1.43
18 | DEEERLSREILELNIEVLETGNEHVVRELLDPHVKMEVGDKEYHGREEFVTLFHHFGIDHFHIHEIRFIGNKAEMHVSSEINGRRFSILIIAHKVNGKWIMHTMHVE | -0.037

Row | Sequence | protease stability score
19 | DEEERLTRDWAKQWIHFLETGDEDRLMELADPHVRIDVNGQEFHGREQFNKFMSHLTTHARFETKEVQVIGNKTHIDTRMSIDGKTTETLVILIIWNGRLKELRIHHH | 1.47
20 | DEEERLVRKFSSVVKHIFKTGDWKRFTELADPDTLLIIIIGDKEIRHHGREEITHALREWFRILGIDHFHIRDERYQGDKVELDTEVRYNGQTHDFVIEVIVVDGRAKEFKIRFR | 1.67
21 | DEEERLWEAAEYFFIHLLQTGDEEMVTKYADPHVRSDVNGVEYHGMNQFVEEWRRLVERIDHLESHHIDRVEIYNGVVTVHLRVHGEVNGKRDTFRVIIFMYKYNGQWRIHSYEFK | 1.1
22 | DEEERLWHEFLEEFLRYIITGNWKKIADLADPNVRYQQGEKTNIGREDFERHFEKTYNDLGVDHFEIDHVDIQGNKIEIHLWLRVNGQEHKIHIDVKVVNGRIKYVRIEYE | 1.5
23 | DEEERMAHEVAEILLRSLHTGDWRRDMDLLDPHVRFDFNGVHLHGREEWLRHLHEFWRKFGVEFFDLHEDNISIQGDKAIMDGQIEFNGRRTKQKLEITVIDGRVKEVRVEIH | 0.59
24 | DEEERQLEEFLELLVEALRTGDWHTLMRMLDPNVKVHIDGKDIHGREEHIRLHIEQWERLGYERIEFRVRIDEVHFINGVVEVDYTQIDQFDGQRLQLRVRIFLLKFDGRWSIDKVVFR | 2.46
25 | DEEERQVLLLAKILIHLYYTGDEESFRKLLDPHVRIIWNGRDFVGRENWYELLHRVLRHWRIHHIDIHDFDVQGNKARFHTQIVVDVNGKHIRSHTEVIYVVVNGRVDEIEVIIR | 2.37
26 | DEEERRDREWLHRMLHVHHTGDEEMFKRLADPHTLLRVDGKDVHGREEIAHFIRERGYRVEVHARHIEIINGRIDNETTVIVRINGRTIHEETHLHIRKINGKWILTHWHIE | 0.654
27 | DEEERRLHEIAELVVHRLVTGDEDTLNKLFDPNTRFELIFNGQNFELHGREALMEWLQRRRNVREKHEVRRIEYQGDKLHVDGTLIIEYGDKRRESEVDLRIRVVNGRVHTIDLRLK | 1.48
28 | DEEERRTREFTEHVLHAEETGDFDSFVELADPNVRMRIGDKEIHGMEMVAKWLVHMRIKHFNLHRIEIQGEKVHIDGEIKGRFNGRDTETKVIFHIVVIDGRLHSQIIQIH | 1.54
29 | DEEERSAKDFSERVFEEDRTGDEERWERLADPNVRLDINGKEHHGRELVMKYRLEFLRRVKNMVIRLEHIEIRVFDGKLTLHIHGVINVDGKTIHFDLIIIVRKVDGRWRIDEVIIEIK | 1.4
30 | DEEERSFELALRLLERTIKTGNEDDWRRMLDPHTKIIIGDKEFHGMEDAEKILREHIHRIDHFHDIHLHRIRVQGDKIHMDVRLDGRINGRRDILIARFTVVKVDGRWVIHQVESH | 1.22
31 | DEEERVRDEIERLIEESLRTGDWRHLSELFDPNVRMEVGDKDIIGRERVHQAIHDFWKSFGADHRHLHDIEEINGVVIMHMRYRVGNKTVHFHVIMIKINGRWFLHSVHIHID | 1.11
32 | DEEERYIIEMLRILAEAILTGDEDETHNQLDPDVRIEWNGVELHGRDELLRFMHHLRIDIKRVEFRSITKVDGRVHTDGLLDVTYFIDGRVFRRRTHTELIILKVDGRWTFHSIKID | 2.19
33 | DEEESIERELSRRWLHWFITGDEERAKKLADPRARYHQGDKEIHGWDNLRKFLFEILEKIPNLRIIIRDSDVINGRIHYDTELHIDGVHIKTHLIIVIVDGRLKELHVEEH | 0.06
34 | DEEESRIEKVNRRWLRAYATGDEDTLNHLIDPRVRMDIDGVDLHGREEFEEWLRRIDVIRTFELKFMHIQGEKVNNDVQFDTRIDGQNRSVRNKLIIEKVDGKWVVKTIHFI | 0.228
35 | DEEHDIDRKIFEMIVDVFLTGDWKRWFDNADPDVKTEIRIGDKKIDLHGWEFFLRFLEEELRRFKNIQIMSTDVKLFNGKVDVNIEIRIGDKTQHYIYHIHTFNGVIKHVHVHSK | 1.28
36 | DEEHEAIEQFLRIIIENARTGNEEFLYKYFDPHVRIHIDGQNMVGREEWVEWLRQIRHQVDSFHIKHIEVQGDKLILEGHLEIKLHINGQELHKHVEVRYEINKVNGRWLLRSVHIK | 1.74
